Measurements: patent US20250003940A1, “BIOSENSOR, BIOSENSOR COMPONENTS, AND USE THEREOF” (VICTORIA LINK LIMITED, priority 2021, published 2025)

Experiment: Enzyme activity after freeze-drying with stabilisers
Format: physicochemical
Settings: freeze-dried with different stabilisers, compared with non-freeze-dried standard
Description: FIG. 23A: RcArgZ activity levels after freeze-drying with different additives. RcArgZ was purified and exchanged into the freeze-drying buffers. The buffers contained 50 mM Tris-Cl pH 8.0, 1 mM MgCl2, and one of the stabilisers. The stabilisers were the following: 1 mM mannitol, 40 mg/mL mannitol, 1 mM sucrose, 10 mg/mL sucrose, 1 mM trehalose, 20 mg/mL trehalose, or 20 mg/mL sucrose and 40 mg/mL mannitol. The sample was then snap frozen using liquid nitrogen before putting in a benchtop freeze-dryer. The sample was left drying for 18-24 hours. The activity of the freeze-dried enzymes was tested and compared with the non-freeze-dried standard (in their corresponding storage buffer).
FIG. 23B: HpGS activity levels after freeze-drying with different additives. HpGS was purified and buffer exchanged to the freeze-drying buffers. The buffers contained 50 mM Tris-Cl pH 8.0, 1 mM MgCl2, and the stabilisers. The stabilisers were the following: 1 mM mannitol, 40 mg/mL mannitol, 1 mM sucrose, 10 mg/mL sucrose, 1 mM trehalose, 20 mg/mL trehalose, or 20 mg/mL sucrose and 40 mg/mL mannitol. The sample was then snap frozen using liquid nitrogen before putting in a benchtop freeze-dryer. The sample was left drying for 18-24 hours. The activity of the freeze-dried enzymes was tested and compared with the non-freeze-dried standard (in their corresponding storage buffer). […]

B1: BpsA: Streptomyces lavendulae blue pigment synthetase A, converts glutamine to indigoidine, SEQ ID NO: 1 (protein, UniProt Q1MWN4 1-1282, looked up)
Indigoidine synthase: MTLQETSVLEPTLQGTTTLPGLLAQRVAEHPEAIAVAYRDDKLTFRELASRSAALADYLEHLGVSADDCVGLFVEPSIDLMVGAWGILNAGAAYLPLSPEYPEDRLRYMIENSETKIILAQQRLVSRLRELAPKDVTIVTLRESEAFVRPEGTEAPAARSARPDTLAYVIYTSGSTGKPKGVMIEHRSIVNQLGWLRETYAIDRSKVILQKTPMSFDAAQWEILSPANGATVVMGAPGVYADPEGLIETIVKHNVTTLQCVPTLLQGLIDTEKFPECVSLQQIFSGGEALSRLLAIQTTQEMPGRALINVYGPTETTINSSSFPVDPADLDEGPQSISIGSPVHGTTYHILDKETLKPVGVGEIGELYIGGIQLARGYLHRDDLTAERFLEIELEEGAEPVRLYKTGDLGQWNNDGTVQFAGRADNQVKLRGYRVELDEISLAIENHDWVRNAAVIVKNDGRTGFQNLIACIELSEKEAALMDQGNHGSHHASKKSKLQVKAQLSNPGLRDDAELAARPAFDLEGAEPTPEQRARVFARKTYRFYEGGAVTQADLLGLLGATVTAGYSRKAADLAPAELGQILRWFGQYISEERLLPKYGYASPGALYATQMYFELEGVGGLKPGYYYYQPVRHQLVLISEREATGKATAQIHFIGKKSGIEPVYKNNILEVLEIETGHMVGLFEQILPAYGLDIHDRAYEPAVKDLLDVADEDYYLGTFELVPHAGARDDQAEVYVQTHGGKVAGLPEGQYRYENGELTRFSDDIVLKKHVIAINQSVYQAASFGISVYSRAEEEWLKYITLGKKLQHLMMNGLNLGFMSSGYSSKTGNPLPASRRMDAVLGANGVDSAPMYFFVGGRISDEQIGHEGMREDSVHMRGPAELIRDDLVSFLPDYMIPNRVVVFDRLPLSANGKIDVKALAASDQVNAELVERPFVAPRTETEKEIAAVWEKALRRENASVQDDFFESGGNSLIAVGLVRELNARLGVSLPLQSVLESPTIEKLARRLEREVAQESSRFVRLHAETGKARPVICWPGLGGYPMNLRSLAGEIGLGRSFYGVQSYGINEGETPYETITEMAKKDIEALKEIQPAGPYTLWGYSFGARVAFETAYQLEQAGEKVDNLFLIAPGSPKVRAENGKVWGREASFANRGYTTILFSVFTGTISGPDLDRCLETVTDEASFAEFISELKGIDVDLARRIISVVGQTYEFEYSFHELAERTLQAPISIFKAVGDDYSFLENSSGYSAEPPTVIDLDADHYSLLREDIGELVKHIRYLLGE
activity when freeze-dried: able to retain activity
